Results reported in US20110159013A1.

Molecular target: ADDL fibril preparation (Aβ1-42 fibrils made in 10 mM hydrochloric acid)
Experiment: solution equilibrium titration; free IgG by ELISA; GraFit

For monoclonal antibody WO-2, the Kd was 1.15 nM.
